Data reported in patent US20220064329A1 (Novo Nordisk, published 2022).
Residue numbers refer to the chain shown, from its start.

T1: recombinant human activated Factor VII (FVIIa) (human, UniProt P08709 61-212; P08709 213-466, Gla domain: ten glutamate residues may be gamma-carboxylated)
T1 construct: two-chain form after cleavage between Arg152 and Ile153; light chain (Gla, EGF domains) and heavy chain (protease domain) tethered by a disulfide bond; also called rFVIIa; human FVIIa
T1 sequence 1: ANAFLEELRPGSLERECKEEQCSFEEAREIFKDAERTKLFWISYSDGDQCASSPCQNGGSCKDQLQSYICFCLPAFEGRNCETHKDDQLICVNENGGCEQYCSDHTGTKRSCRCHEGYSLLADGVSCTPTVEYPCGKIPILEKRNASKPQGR
T1 sequence 2: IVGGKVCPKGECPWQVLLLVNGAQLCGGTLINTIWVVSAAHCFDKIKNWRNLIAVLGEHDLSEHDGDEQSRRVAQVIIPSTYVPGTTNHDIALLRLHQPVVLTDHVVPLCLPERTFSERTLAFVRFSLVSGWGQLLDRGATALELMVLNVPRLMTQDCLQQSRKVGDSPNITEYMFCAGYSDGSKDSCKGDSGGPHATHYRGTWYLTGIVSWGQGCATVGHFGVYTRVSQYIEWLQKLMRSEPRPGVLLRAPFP

T2: recombinant human activated FVII (FVIIa) (human, UniProt P08709 61-212; P08709 213-466, ten glutamate residues of the Gla domain may be gamma-carboxylated)
T2 sequence 1: T1 sequence 1
T2 sequence 2: T1 sequence 2

B1: mAb0578 (antibody, V domains shown)
VH: QVQLQQSGAELMKPGASVKISCKATGYTFNTYWIEWVKQRPGHGLEWIGEILPGRGTTNYNENFKGKATITADISSNTAYLQLSSLTGEDSAVYYCARLTPLSLRTGYWGQGTTLTVSS
VL: DILLTQSPAILSVSPGERVSFSCRASQSIGTSIHWYQQRTNGSPRLLIKYASESISGIPSRFSGSGSGTDFTLSINSVESEDIADYYCQQSNSWPFTFGSGTKLEIK
notes: fully murine, hybridoma-derived; also called 12F19
B2: mAb0587 (antibody, V domains shown)
VH: QVQLQQSGAELLKPGASVKISCKATDYTFSRYWIEWVKQRPGHGLEWIGEILPGSVNIKYNEIFKGKATFTAETSSNTAYMQLSSLTSEDSAVYYCTRTPYLQRGAYWGQGTLVTVSA
VL: QIVLTQSPAIMSASPGEKVTITCSASSSVSYMFWFQQKPGTSPKLWIYSTSNLASGVPARFSGSGSGTSYSLTISRMEAEDAATYYCQQRSSYPLTFGAGTKLELK
notes: fully murine, hybridoma-derived; also called 12F39
B3: mAb0007 (antibody, V domains shown)
VH: DVQLQESGPGLVEPSQSLSLTCTVTGYSITSDCAWSWIRQFPGNKLEWMGYINYSGSTNYNPSLKSRISITRDTSKNQFFLRLNSVTGEDTATYYCARSVNYYGNSFAVGYWGQGTSVTVSS
VL: DIVMTQSPATLSVTPGDRVSLSCRASQSISDYLHWYQHKSHESPRLLIKYVSQPISGIPSRFSGSGSGSEFTLSINSVEPEDVGVYYCQNGHSFPLTFGAGTKLELK
notes: fully murine, hybridoma-derived; also called 11F34
B4: mAb0005 (antibody, V domains shown)
VH: B3 VH with I70V, N84S, G88A, A97T
VL: B3 VL with P15A, S28G, H38Q, V51T, I55V
notes: fully murine, hybridoma-derived; also called 11F2; mAb005
B5: mAb0552 (antibody, V domains shown)
VH: B3 VH with E13K, S36N, Q78H, R82Q, G88A, N101D, Y103F, T119A
VL: B3 VL with H38Q, V51S, P54S, E70D
notes: fully murine, hybridoma-derived; also called 11F18
B6: mAb0544 (antibody, V domains shown)
VH: B3 VH with E13K, S36N, K76Q, Q78H, R82Q, N84S, G88A, A97T, T116I
VL: DIVMSQSPATLSVTPGDRVSLSCRTSQDIGDYLHWYRQKSHESPRLLIKYTSQSVSGIPSRFSGSGSGSDFTLSINTVEPEDVGLYYCQNGHSFPLTFGTGTRLELK
notes: fully murine, hybridoma-derived; also called 11F9
B7: biAb0241 (bispecific antibody, human IgG4 S228P, kappa)
heavy 1: QVQLQESGPGLVKPSQTLSLTCTVSGYSISSDSAWSWIRQPPGKGLEWIGYIQYSGSTNYNPSLKSRVTISRDTSKNQFSLKLSSVTAADTAVYYCARSVNYYGNSFAVGYWGQGTLVTVSSASTKGPSVFPLAPCSRSTSESTAALGCLVKDYFPEPVTVSWNSGALTSGVHTFPAVLQSSGLYSLSSVVTVPSSSLGTKTYTCNVDHKPSNTKVDKRVESKYGPPCPPCPAPEFLGGPSVFLFPPKPKDTLMISRTPEVTCVVVDVSQEDPEVQFNWYVDGVEVHNAKTKPREEQFNSTYRVVSVLTVLHQDWLNGKEYKCKVSNKGLPSSIEKTISKAKGQPREPQVYTLPPSQEEMTKNQVSLTCLVKGFYPSDIAVEWESNGQPENNYKTTPPVLDSDGSFLLYSKLTVDKSRWQEGNVFSCSVMHEALHNHYTQKSLSLSLGK
light 1: EIVLTQSPATLSLSPGERATLSCRASQGISDYLHWYQQKPGEAPRLLIKYTSQPATGIPARFSGSGSGTDFTLTISSLEPEDFAVYYCQNGHSFPLTFGQGTKLEIKRTVAAPSVFIFPPSDEQLKSGTASVVCLLNNFYPREAKVQWKVDNALQSGNSQESVTEQDSKDSTYSLSSTLTLSKADYEKHKVYACEVTHQGLSSPVTKSFNRGEC
heavy 2: not shown
light 2: DIVVSQSPSSLAVSAGEKVTMSCKSSQSLLNSRTRKNYLAWYQQKPGQSPKLLIYWASTRESGVPDRFTGSGSGTDFTLTISSVQAEDLAVYYCKQSYNLLTFGAGTKLELKRTVAAPSVFIFPPSDEQLKSGTASVVCLLNNFYPREAKVQWKVDNALQSGNSQESVTEQDSKDSTYSLSSTLTLSKADYEKHKVYACEVTHQGLSSPVTKSFNRGEC

The binders below were run against T1, recombinant human activated Factor VII … (assay: SPR (Biacore T200), antibody captured on anti-murine IgG, FVIIa injected at 5-135 nM, 1:1 model).
Description: Anti-murine IgG (by GE Healthcare) was immobilised on a CM4 sensor chip using standard amine coupling chemistry kit (both supplied by GE Healthcare). […] The running buffer was prepared by diluting 10-fold the 10×HBS-P buffer (supplied by GE Healthcare) and supplemented with 1 mg/ml BSA and 5 mM CaCl₂) to give 10 mM HEPES, 150 mM NaCl, 0.05% v/v Polysorbate 20(P20), pH 7.4, 5 mM CaCl₂), 1 mg/ml bovine serum albumin (BSA). […] Regeneration of the chip was achieved using regeneration buffer consisting of 10 mM Gly-HCl pH 1.7 (supplied by GE Healthcare). Binding data were analysed according to a 1:1 model using BiaEvaluation 4.1 supplied by the manufacturer (Biacore AB, Uppsala, Sweden).

Binder	Kd [pM]
B1	580
B2	490
B3	250
B4	140
B5	760
B6	270

The binders below were run against T1, recombinant human activated Factor VII … (assay: cell-based or functional assay).

Binder	AT inhibition (kinh %) [%]	TGT activity (% FVIIa)
B1	77	91
B2	103	93
B3	121	113
B4	133	115
B5	118	104
B6	111	103

What follows are binders tested against T2, recombinant human activated FVII (FVIIa) (assay: cell-based or functional assay).

Binder	Stimulation (fold): FXa generated by FVIIa with lipidated TLT-1 and 100 nM biAb, relative to free FVIIa [fold]
B7	35.3
